Common to all, as to assay: cell-based or functional assay
The target of experiment [1] is HLA-A2 on control CD80+HLA-A2+ K562 cells (no defined peptide) (human).
For experiment [2], the target named is single-chain trimer (SCT) of HLA-A2/NYESO1 157-165(C165V), on cells (human).
Experiment [3] deals with single-chain trimer (SCT) of HLA-A2/MART1 26-35(A27L), on cells (human).
For experiment [4], the target named is single-chain trimer (SCT) of HLA-A2 with the USP7 mutant 9-mer peptide …, on K562 cells (human).

For the substance “1G4 TCR (A2/NYESO1 157-165-specific), expressed on cells”, in experiment [1], the percentage of trogocytosis^+ control CD80^+HLA-A2^+ K562 cells (NYESO1-K562 dilution experiment) is 0.33% and the percentage of trogocytosis^+ control cells (MART1-K562 dilution experiment) amounted to 0.41%. In experiment [2], the percentage of trogocytosis^+ NYESO1-K562 target cells (diluted 1:10,000 in control cells) is 70.8%; the share of NYESO1-K562 among trogocytosis^+ target cells (1:1 mixture of NYESO1-K562 and MART1-K562, read by TCR dextramer staining) amounted to 95.1%; the share of NYESO1-K562 among trogocytosis^- target cells (1:1 mixture, co-incubated with 1G4-Jurkat) was 23.7%; the trogocytosis (TCR transfer to K562) of CD8 co-expressing Jurkat cells relative to those only expressing TCR came out at 3 fold. Moreover, in experiment [3], the percentage of trogocytosis^+ MART1-K562 cells (one per 10,000 control cells) came to 1.6% and the share of MART1-K562 among trogocytosis^- target cells (1:1 mixture, co-incubated with 1G4-Jurkat) came out at 70.8%.
In experiment [1], “F5 TCR (HLA-A2/MART1 26-35-specific), expressed on cells” came in with a percentage of trogocytosis^+ control CD80^+HLA-A2^+ K562 cells (NYESO1-K562 dilution experiment) of 0.35% and a percentage of trogocytosis^+ control cells (MART1-K562 dilution experiment) of 0.46%. In addition, in experiment [2], the percentage of trogocytosis^+ NYESO1-K562 target cells (diluted 1:10,000 in control cells) was found to be 0% and the share of NYESO1-K562 among trogocytosis^- target cells (1:1 mixture, co-incubated with F5-Jurkat) came out at 76.3%. In experiment [4], the Specific Cytotoxic Killing (Avg. % Specific Lysis), E:T 2 to 1 (Avg. % Specific Lysis) was found to be 0.0644; the Specific Cytotoxic Killing (Avg. % Specific Lysis), E:T 4 to 1 (Avg. % Specific Lysis) stood at 0.0366; the Specific Cytotoxic Killing (Avg. % Specific Lysis), E:T 8 to 1 (Avg. % Specific Lysis) turned out to be 0.0406; the Specific Cytotoxic Killing (Avg. % Specific Lysis), E:T 16 to 1 (Avg. % Specific Lysis) was determined as 0. In experiment [3], this substance gave a Specific Cytotoxic Killing (Avg. % Specific Lysis), E:T 2 to 1 (Avg. % Specific Lysis) of 0.16; a Specific Cytotoxic Killing (Avg. % Specific Lysis), E:T 4 to 1 (Avg. % Specific Lysis) of 0.268; a Specific Cytotoxic Killing (Avg. % Specific Lysis), E:T 8 to 1 (Avg. % Specific Lysis) of 0.377; a Specific Cytotoxic Killing (Avg. % Specific Lysis), E:T 16 to 1 (Avg. % Specific Lysis) of 0.593. Also, in experiment [3], the percentage of trogocytosis^+ MART1-K562 cells (one per 10,000 control cells) was found to be 73.4%; the share of MART1-K562 among trogocytosis^+ target cells (1:1 mixture, co-incubated with F5-Jurkat) was found to be 94.9%; the share of MART1-K562 among trogocytosis^- target cells (1:1 mixture, co-incubated with F5-Jurkat) was 18.8%; the shift in LNGFR and TCR staining of K562 target cells was 2 to 3 fold. Besides, in experiment [3], the shift in streptavidin staining of K562 target cells (transfer of biotinylated Jurkat membrane proteins) came out at 3.5 fold and the trogocytosis (TCR transfer to K562) of CD8 co-expressing Jurkat cells relative to those only expressing TCR is 3 fold.

Values taken from patent US12066430.
